Data from publication PMC9499943 (Nature Communications, 2022).

B1: CoV2-14 (antibody, V domains shown)
VH: EVQLQQSGPGLVKPSQTLSLTCAISGDSVSSNSAAWNWIRQSPSRGLEWLGRTYYRSKWYNDYAVSVKSRITINPDTSKNQFSLQLNSVTPEDTAVYYCAREEQQLVHDYYYYGMDVWGQGTMVTVSS
VL: QAVVTQPASVSGSPGQSITISCTGTSSDIGAYNYISWYQQHPGKAPKLIIYEVSNRPSGISYRFSGSKSGNTASLTISGLQAEDEANYYCSSYAGSISFGGGTKVTVL
B2: CoV2-14 (antibody, V domains shown)
VH: B1 VH
VL: B1 VL
B3: CoV2-06 (antibody, V domains shown)
VH: QVELQESGPGLVKPSGTLSLTCAVSGGSISSNNWWTWVRQPPGKGLEWIGEIHHSGGTNYNPSLKSRVTMSVDKSKNQFSLNLYSVTAADTAVYYCTRDRAGGTYSGFDFWGQGTLVTVSS
VL: QAVVTQPASVSGSPGQSITISCTGTSSDVGGYNYVSWYQQHPGKAPKLMIYDVSNRPSGVSNRFSGSKSGNTASLTISGLQAEDEADYYCSSYTSSSTVVFGGGTKVTVL
B4: CoV2-06 (antibody, V domains shown)
VH: B3 VH
VL: B3 VL

Tests used:
Assay in all cases: BLI
Conditions in all cases: both partners purified
[1] = target: His-tagged RBD (RBD-His) protein of SARS-CoV-2 (SARS-CoV-2, wild type (Wuhan-Hu-1 …, UniProt P0DTC2))
[2] = target: His-tagged RBD (RBD-His) protein of SARS-CoV-2 (SARS-CoV-2, wild type (Wuhan-Hu-1 …, UniProt P0DTC2)); remark: listed apart in the source
[3] = target: Fc-tagged wild-type RBD (RBD-Fc) (SARS-CoV-2, UniProt P0DTC2)

Binder	Kd [1]	koff [1]	kon [1]	other [2]	IC50 [3]
B1	1.18 nM	0.000895 s⁻¹	761000 M⁻¹ s⁻¹		
B2				2 fold	10.6 nM
B3	4.14 nM	0.000695 s⁻¹	168000 M⁻¹ s⁻¹		
B4				46 fold	39.8 nM
